The Immune Epitope Database (IEDB)

What was measured:
Experiment in all cases: IEDB peptide-MHC binding, purified MHC/competitive/radioactivity; ≥ and ≤ were set here for values at or beyond the usual limits of such assays
HLA-A*02:01 = target: HLA-A*02:01
HLA-A*68:02 = target: HLA-A*68:02
HLA-A*02:03 = target: HLA-A*02:03
HLA-A*02:02 = target: HLA-A*02:02
HLA-A*02:06 = target: HLA-A*02:06
[1] = source organism: Vaccinia virus WR
[2] = source organism: Influenza A virus
[3] = source organism: Hepacivirus hominis

Row | Sequence | IC50 (HLA-A*02:01; [1]) | IC50 (HLA-A*68:02; [1]) | IC50 (HLA-A*02:03; [1]) | IC50 (HLA-A*02:02; [1]) | IC50 (HLA-A*02:06; [1]) | other results
1 | WLGAAITLVV | 123 nM | 264 nM | 78 nM | 20 nM | 1840 nM | 
2 | FQESFYEDIA | 4840 nM | 2910 nM | 555 nM | 2560 nM | 303 nM | 
3 | IMSMMNITRL | 284 nM | 119 nM | 106 nM | 62 nM | 585 nM | 
4 | SIPISELSRL | 2260 nM | 422 nM | 61 nM | 252 nM | 78 nM | 
5 | SCLENFRAYV |  |  |  |  |  | IC50 (HLA-A*02:01; [2]): 20 nM; IC50 (HLA-A*68:02; [2]): 224 nM; IC50 (HLA-A*02:03; [2]): 55 nM; IC50 (HLA-A*02:02; [2]): 90 nM; IC50 (HLA-A*02:06; [2]): 162 nM
6 | WISDNTHIYL | 12 nM | 4.8 nM | 1.2 nM | 0.14 nM | 1.8 nM | 
7 | TQWSLFFFV |  |  |  |  |  | IC50 (HLA-A*02:01; source organism: SARS-CoV1): 0.77 nM; IC50 (HLA-A*68:02; source organism: SARS-CoV1): 104 nM; IC50 (HLA-A*02:03; source organism: SARS-CoV1): 540 nM; IC50 (HLA-A*02:02; source organism: SARS-CoV1): 80 nM; IC50 (HLA-A*02:06; source organism: SARS-CoV1): 0.81 nM
8 | STISWMMKL | 55 nM | 0.23 nM | 23 nM | 92 nM | 12 nM | 
9 | ALYKGFQFI |  |  |  |  |  | IC50 (HLA-A*02:01; source organism: SARS-CoV1): 5.2 nM; IC50 (HLA-A*68:02; source organism: SARS-CoV1): 4450 nM; IC50 (HLA-A*02:03; source organism: SARS-CoV1): 3.3 nM; IC50 (HLA-A*02:02; source organism: SARS-CoV1): 0.53 nM; IC50 (HLA-A*02:06; source organism: SARS-CoV1): 2 nM
10 | TIDKSSPLYI | 1900 nM | 1550 nM | 12 nM | 387 nM | 1820 nM | 
11 | IASILSLETV | 424 nM | 200 nM | 93 nM | 234 nM | 47 nM | 
12 | VVISVIFYFI | 616 nM | 583 nM | 755 nM | 239 nM | 542 nM | 
13 | RLLAPITAYA |  |  |  |  |  | IC50 (HLA-A*02:01; [3]): 29 nM; IC50 (HLA-A*68:02; [3]): 94 nM; IC50 (HLA-A*02:03; [3]): 25 nM; IC50 (HLA-A*02:02; [3]): 5.2 nM; IC50 (HLA-A*02:06; [3]): 103 nM
14 | IVTFINDYA | 4320 nM | 84 nM | 2960 nM | 140 nM | 1150 nM | 
15 | AIMTRCLAV |  |  |  |  |  | IC50 (HLA-A*02:01; source organism: SARS-CoV1): 5.9 nM; IC50 (HLA-A*68:02; source organism: SARS-CoV1): 1300 nM; IC50 (HLA-A*02:03; source organism: SARS-CoV1): 15 nM; IC50 (HLA-A*02:02; source organism: SARS-CoV1): 51 nM; IC50 (HLA-A*02:06; source organism: SARS-CoV1): 27 nM
16 | IVAMLLTHGA | 4910 nM | 505 nM | 153 nM | 1160 nM | 82 nM | 
17 | RLQMAGVEV | 1450 nM | 2510 nM | 531 nM | 326 nM | 4110 nM | 
18 | SIDHCSSFI | 246 nM | 27 nM | 13 nM | 631 nM | 199 nM | 
19 | YTVEFDRDKV | 934 nM | 4.5 nM | 154 nM | 83 nM | 22 nM | 
20 | VTLFIDRGSI | 1500 nM | 14 nM | 2250 nM | 3830 nM | 3010 nM | 
21 | TLPELNLSL | 62 nM | 309 nM | 23 nM | 135 nM | 802 nM | 
22 | GLIAIVMVTI |  |  |  |  |  | IC50 (HLA-A*02:01; source organism: SARS-CoV1): 61 nM; IC50 (HLA-A*68:02; source organism: SARS-CoV1): 1670 nM; IC50 (HLA-A*02:03; source organism: SARS-CoV1): 19 nM; IC50 (HLA-A*02:02; source organism: SARS-CoV1): 7.6 nM; IC50 (HLA-A*02:06; source organism: SARS-CoV1): 137 nM
23 | YMVTDKTAYI | 4.8 nM | 1.5 nM | 0.28 nM | 0.23 nM | 6.1 nM | 
24 | RTFFLTQGA |  |  |  |  |  | IC50 (HLA-A*02:01; [2]): 3110 nM; IC50 (HLA-A*68:02; [2]): 514 nM; IC50 (HLA-A*02:03; [2]): 158 nM; IC50 (HLA-A*02:02; [2]): 2010 nM; IC50 (HLA-A*02:06; [2]): 1990 nM
25 | WVMDTLNGI | 12 nM | 0.44 nM | 1 nM | 9.8 nM | 0.73 nM | 
26 | ELTTVFIKYV | 2560 nM | 81 nM | 719 nM | 2800 nM | 463 nM | 
27 | LLFQLCTFT |  |  |  |  |  | IC50 (HLA-A*02:01; source organism: SARS-CoV1): 833 nM; IC50 (HLA-A*68:02; source organism: SARS-CoV1): 855 nM; IC50 (HLA-A*02:03; source organism: SARS-CoV1): 3.8 nM; IC50 (HLA-A*02:02; source organism: SARS-CoV1): 22 nM; IC50 (HLA-A*02:06; source organism: SARS-CoV1): 11 nM

Row | Sequence | IC50 (HLA-A*02:01; [1]) | IC50 (HLA-A*68:02; [1]) | IC50 (HLA-A*02:03; [1]) | IC50 (HLA-A*02:02; [1]) | IC50 (HLA-A*02:06; [1]) | other results
28 | SLVSKHWEL | 2.7 nM | 378 nM | 36 nM | 1.2 nM | 35 nM | 
29 | YLRGHTESI | 3.7 nM | 506 nM | 0.18 nM | 0.21 nM | 91 nM | 
30 | DVLPFDIKYI | 183 nM | 361 nM | 188 nM | 1200 nM | 1110 nM | 
31 | YVSPTEMVDV | 21 nM | 235 nM | 50 nM | 63 nM | 5.2 nM | 
32 | YIAGLKIEEI | 9.5 nM | 669 nM | 5.3 nM | 8.9 nM | 134 nM | 
33 | IVDSMIIGHI | 1060 nM | 53 nM | 208 nM | 507 nM | 561 nM | 
34 | NLTQLFKYV | 1180 nM | 4340 nM | 238 nM | 320 nM | 657 nM | 
35 | FLAHLQWFA |  |  |  |  |  | IC50 (HLA-A*02:01; source organism: SARS-CoV1): 0.1 nM; IC50 (HLA-A*68:02; source organism: SARS-CoV1): 17 nM; IC50 (HLA-A*02:03; source organism: SARS-CoV1): 0.21 nM; IC50 (HLA-A*02:02; source organism: SARS-CoV1): 0.1 nM; IC50 (HLA-A*02:06; source organism: SARS-CoV1): 0.57 nM
36 | TISGNIYSA | 207 nM | 11 nM | 19 nM | 85 nM | 179 nM | 
37 | VMCGGSLYV |  |  |  |  |  | IC50 (HLA-A*02:01; source organism: SARS-CoV1): 0.39 nM; IC50 (HLA-A*68:02; source organism: SARS-CoV1): 2910 nM; IC50 (HLA-A*02:03; source organism: SARS-CoV1): 7.5 nM; IC50 (HLA-A*02:02; source organism: SARS-CoV1): 0.61 nM; IC50 (HLA-A*02:06; source organism: SARS-CoV1): 6.8 nM
38 | GVCYYLLMHL | 124 nM | 80 nM | 64 nM | 96 nM | 128 nM | 
39 | KAKQLCYCPA | 1500 nM | 2460 nM | 188 nM | 308 nM | 339 nM | 
40 | MLVCGDDLVV |  |  |  |  |  | IC50 (HLA-A*02:01; [3]): 97 nM; IC50 (HLA-A*68:02; [3]): 3060 nM; IC50 (HLA-A*02:03; [3]): 102 nM; IC50 (HLA-A*02:02; [3]): 45 nM; IC50 (HLA-A*02:06; [3]): 157 nM
41 | RVLYDEFVTI | 28 nM | 1640 nM | 178 nM | 153 nM | 6.6 nM | 
42 | KVYLSTFNM | 535 nM | 1820 nM | 786 nM | 482 nM | 265 nM | 
43 | IVILFIMFM | 576 nM | 667 nM | 1680 nM | 1860 nM | 741 nM | 
44 | IAVSVYGAI | 884 nM | 7.8 nM | 124 nM | 1480 nM | 1100 nM | 
45 | DTMSIYIAVA | 83 nM | 17 nM | 24 nM | 19 nM | 1480 nM | 
46 | IMSIGFEARI | 1590 nM | 61 nM | 1500 nM | 703 nM | 1600 nM | 
47 | LAISAVYFKA | 770 nM | 802 nM | 363 nM | 1430 nM | 659 nM | 
48 | TVGMSIVCIV | 526 nM | 220 nM | 468 nM | 528 nM | 200 nM | 
49 | CTINVNSLA | 1040 nM | 13 nM | 1610 nM | 1040 nM | 248 nM | 
50 | IINSVSIILA | 895 nM | 154 nM | 890 nM | 719 nM | 957 nM | 
51 | TIFDIVSKCI | 596 nM | 109 nM | 94 nM | 198 nM | 701 nM | 
52 | NMCNSDVSV | 88 nM | 202 nM | 30 nM | 80 nM | 97 nM | 
53 | ETIQKDINIT | 1270 nM | 69 nM | 10 nM | 354 nM | 112 nM | 
